US5919901
Ends that are not written are not given here.

Molecular target: T1, Rat Y4/PP1 (clone) (rat), Q63447
T1 chain: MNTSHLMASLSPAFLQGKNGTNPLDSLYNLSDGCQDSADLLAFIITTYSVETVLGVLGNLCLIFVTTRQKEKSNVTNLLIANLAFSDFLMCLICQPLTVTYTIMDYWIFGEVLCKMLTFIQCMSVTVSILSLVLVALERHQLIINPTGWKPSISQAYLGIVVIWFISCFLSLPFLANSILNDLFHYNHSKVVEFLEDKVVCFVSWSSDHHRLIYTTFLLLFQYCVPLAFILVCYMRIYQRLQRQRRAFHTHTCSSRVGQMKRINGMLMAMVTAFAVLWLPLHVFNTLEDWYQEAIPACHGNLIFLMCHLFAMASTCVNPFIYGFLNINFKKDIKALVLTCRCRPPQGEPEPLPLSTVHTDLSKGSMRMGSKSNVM
Assay: competition with rat [125I]PP on the rat Y4/PP1 clone
Settings: remark: other sources report otherwise

B1: p(13-36)NPY, P01304 (peptide)
peptide: PAEDLARYYSALRHYINLITRQRY
modifications: ends and bridges not checked
IC50: > 1000 nM
